Assays:
[1] = target: HLA-B*07:02; experiment: IEDB peptide-MHC binding, purified MHC/competitive/radioactivity; filed as Kd, often an IC50 or EC50 that approximates it; ≥ and ≤ were set here for values at or beyond the usual limits of such assays; settings: source organism: Vaccinia virus WR
[2] = target: HLA-A*11:01; experiment: as above; settings: source organism: Vaccinia virus WR

Sequence	Kd [1] [nM]	Kd [2] [nM]
LPRPDTRHL	14	
AFEFINSLLK		470
RPSTRNFFEL	11	

From the Immune Epitope Database (IEDB)
